Measurements as given in patent US11149086B2, “KV1.3 binding immunoglobulins” (Ablynx N.V., priority 2014, dated 2021).

How the values were obtained:
human Kv1.3 = target: T1, human Kv1.3 (Homo sapiens, UniProt P22001); experiment: FACS competition with FAM-labeled ShK on HEK293H human Kv1.3 cells; type: binding
T1 construct: cell lines stably expressing the full length human Kv1.3 channel
Procedure: To evaluate the competition between the toxin ShK and the Nanobodies for binding to Kv1.3, a FACS competition experiment was performed using HEK293H cells overexpressing human Kv1.3 and the parental HEK293H cells as background cell line. As detection reagent, FAM-labeled ShK was used (6-FAM-AEEAc-Stichodactyla helianthus Neurotoxin (ShK) (Bachem, H-6088, 1046522, PRT00000366/01/01)). To setup the assay, first a titration series of the labeled Shk-FAM was performed on the HEK293H Kv1.3 cells in order to determine the EC50 value for binding.
In brief, a dilution series of ShK or Nanobody were added together with the labeled toxin to 200 000 cells in a 96-well plate. After 90 minutes incubation at 4° C., cells were washed three times before read out was performed on a FACS Canto (Becton Dickinson). First a gate was set on the intact cells as determined from the scatter profile. Next, dead cells were gated out by their fluorescence profile from the TOPRO stain (5 nM, Molecular probes, T3605). […] The percentage of inhibition for Nanobodies blocking the interaction of ShK to human Kv1.3 is depicted in Table B-11.

cyno Kv1.3 = experiment: 125I-margatoxin competition on cyno Kv1.3 expressing CHO cells; type: binding, cynomolgus; details: 150 pM I125 margatoxin
Sequence of cyno Kv1.3 (as listed by the source): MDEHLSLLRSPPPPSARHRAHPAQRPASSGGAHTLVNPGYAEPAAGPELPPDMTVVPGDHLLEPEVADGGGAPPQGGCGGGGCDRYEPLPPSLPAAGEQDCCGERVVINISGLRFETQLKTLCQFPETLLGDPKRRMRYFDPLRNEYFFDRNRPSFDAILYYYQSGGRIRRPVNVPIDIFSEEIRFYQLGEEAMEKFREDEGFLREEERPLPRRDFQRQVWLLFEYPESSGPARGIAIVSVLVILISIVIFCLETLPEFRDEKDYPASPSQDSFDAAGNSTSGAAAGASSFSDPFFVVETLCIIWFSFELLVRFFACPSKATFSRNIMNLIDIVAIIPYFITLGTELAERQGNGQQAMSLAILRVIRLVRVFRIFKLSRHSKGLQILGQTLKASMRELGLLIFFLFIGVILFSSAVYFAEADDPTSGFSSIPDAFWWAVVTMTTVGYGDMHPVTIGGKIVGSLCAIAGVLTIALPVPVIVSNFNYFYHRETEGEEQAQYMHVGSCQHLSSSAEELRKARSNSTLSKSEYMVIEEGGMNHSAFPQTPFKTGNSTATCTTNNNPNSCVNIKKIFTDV
Procedure: Periplasmic extracts were screened in a radioligand 125I-margatoxin competition assay to assess the blocking capacity of the expressed Nanobodies. Cynomolgous Kv1.3 was presented on CHO cells overexpressing Kv1.3.
In order to detect binding of margatoxin to cell expressed Kv1.3, a radiolabeled toxin was used (125I-margatoxin; MgTX; Perkin Elmer, NEX083). To setup the assay, first a titration series of the radiolabeled 125I-margatoxin was performed on the CHO-cyKv1.3 and parental CHO K1 cells. To have maximum sensitivity of the screening, the EC30 concentration (150 pM) was chosen for competition during screening and later on, also characterization.
In brief, 35 μl of periplasmic extract was added to 150 pM labeled margatoxin (50 μl) and 40000 CHO-cyKv1.3 cells that were seeded the day before in a poly-D-lysine coated 96-well plate (BD Biocoat, Cat354620) in a total of 200 μl. After two hours incubation at RT, cells were washed two times before read out was performed with 100 μl/well MicroScint-20 (Perkin Elmer) on a TopCount device (Perkin Elmer).
As reference compounds, a dilution series of ShK-1aJ (Smartox, #08SHK001) and unlabeled margatoxin (Alamone labs, Cat RTM-325) were included. […] For each sample the percentage block was determined using the control samples to determine the assay window. […]

CCR7−CD45RA− T cells = type: cell-based, human
From the text: The purified anti-Kv1.3 Nanobodies were characterized in a T Cell-activation assay. Human T Cells were first collected from Buffy Coat blood (from healthy volunteers, Bloodbank Gent) using RosetteSep (StemCell Technologies, #15061) followed by an enrichment on Ficoll-Paque™ PLUS (GE Healthcare #17-1440-03). CCR7−CD45RA− T cells were isolated through negative selection using biotinylated antibodies against CD45RA (BD Bioscience #624008) and CCR7 (BD Bioscence #624009) in addition to the Dynabeads Biotin Binder (Invitrogen #110.47). The purity of the population was afterwards checked with anti-CD3 (eBioscience #12-0037-73); anti-CD8 (BD Bioscience #345775); anti-CD4 (BD Bioscience #345771); anti-CD45RO (BD Bioscience #555493); anti-CD45RA (BD Bioscience #550855); anti-rat IgG (Jackson ImmunoResearch Laboratories #112-116-143); anti-CD19 (BD Bioscience #555413) and anti-Human CCR7 (R&D Systems #MAB197) labeled antibodies in flow cytometric assay.
Isolated CCR7^−CD45RA^− T Cells were then stimulated on anti-CD3 (eBioscience 16-0037-85; 540 ng/ml) coated 96-well plates at a concentration of 200 000 cells/well in absence or presence of dilution series of anti-Kv1.3 antibodies and ShK positive control (Smartox, #08SHK001). After 72 h, IFN-gamma production was measured with anti-human IFNγ antibody capture in ELISA (BD Bioscence #551221) combined with biotinylated anti-human IFNγ (BD Bioscience, #554550) and streptavidin-HRP (Dakocytomation #P0397) as detection (FIG. 11A-11B).
In addition, also CD25 expression was measured in flow cytometry, using an anti-CD25 antibody (BD Pharmingen, cat 557138) (FIG. 11C-11D). […]

T1 sequence (P22001 whole entry): as the sequence (as listed by the source) above, with H4R, A23P, P38H, P47R, P269T, D275E, A284S, A285R, A497S counted along it

B1: A019400003: monovalent anti-Kv1.3 Nanobody, family 1 (protein)
VHH: EVQLVESGGGLVQAGGSLSLSCTASGGTFRNFGMGWFRQAQGKEREFVAAISRTGGHTYYQDSVKGRFTISKDNAKNILSLQMNSLKPEDTAVYYCAARFRFGDGTYYYQRAFYDFWGQGTQVTVSS
modifications: Nanobody sequence
- blocking of FAM labeled ShK binding to Kv1.3, in words (human Kv1.3; 70 nM ShK-FAM): only partially blocked
- % inhibition of ShK-Fam binding (human Kv1.3; 70 nM ShK-Fam (100x EC50), HEK 293H hu Kv1.3 cells): 87.13%
- block of I125 margatoxin binding, in words (cyno Kv1.3): completely block
- inhibition of T-cell stimulation (IFNγ, CD25), in words (CCR7−CD45RA− T cells; anti-CD3 stimulation): did not block
- IC50 (in M) CD25 read out (CCR7−CD45RA− T cells; monovalent Nanobodies, plate bound anti-CD3): no effect
- IC50 (in M) IFNγ read out (CCR7−CD45RA− T cells; monovalent Nanobodies, plate bound anti-CD3, 72 h): no effect
